# Reference: the supplement of paper PMC9170038
# Tested on: MS2 coat protein
# Assay: apparent KD of MS2 coat protein; designed switch direction (-1 OFF switch, 1 ON switch): -1; higher = weaker reporter binding
# In short: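 Three titration conditions were used: no input, 200 uM small-molecule ligand, and an oligonucleotide input. In each, SNAP-549-labelled MS2 coat protein was raised from 0.7 or 1.5 nM, doubling, to 3 µM over designed RNA switches transcribed on Illumina chips by stalled E. coli RNA polymerase. Curve fits of normalised cluster fluorescence gave values whose per-design median over clusters is the apparent KD.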
# [1] = Eterna round: R95, input ligand: microRNA oligo, concentration not stated
# [2] = input ligand: microRNA oligo, concentration not stated
# [3] = Eterna round: R95, input ligand: FMN 200 uM
# [4] = Eterna round: R95, input ligand: none
sequence,measurement,setting,value
"CGCUGGACAGGAUAUGUUCUUGGGCACUUGAGGAUCACCCAAGUCAUCAAAAACUCAGGCACAGAAGGGUUUAUGG [salish99_ex5_r4_019] (Eterna round: R97, puzzle: Exclusion 5)",apparent KD of MS2 coat protein,input ligand: FMN 200 uM,76 nM
same,apparent KD of MS2 coat protein,input ligand: none,176 nM
CGGAUGUGAGGAUAUACAUGAGGAUCACCCAUGUGAGCCAGCUAGAUGACUGGCUCGUGUAGAAGGCACGUCUG [Mat - Exclusion 3 - Mod of JL D92] (puzzle: Exclusion 3),apparent KD of MS2 coat protein,[1],12.1 nM
"CGGAUGUUAGGAUAUUAGUAGUAGUCAGAAUAGACUAUUACUGAGAAGGAACAUGAGGAUCACCCAUGUUUCCG [Eli x4 4.19] (Eterna round: R97, puzzle: Exclusion 4)",apparent KD of MS2 coat protein,input ligand: FMN 200 uM,16.5 nM
same,apparent KD of MS2 coat protein,input ligand: none,17.4 nM
"CGGCAUGAAGGAUAUACAUGAGGAUCACCCAUGUAAGUUACCUACAUGGCCUCACCUAGUAGAAGGUUAUCCGG [Eternabot (L2) Solution 72] (Eterna round: R97, puzzle: Exclusion 3)",apparent KD of MS2 coat protein,input ligand: FMN 200 uM,94.4 nM
same,apparent KD of MS2 coat protein,input ligand: none,28 nM
"CGGCAUGUAGAAGGAUAUCUGCACGUUUAGUGCAGAGAAGGUCUAACAUGAGGAUCACCCAUGUAGAUCAUUAACCGAUUAAUU [ENG1/8-A2] (Eterna round: R96, puzzle: Exclusion NG 1)",apparent KD of MS2 coat protein,input ligand: FMN 200 uM,19.5 nM
same,apparent KD of MS2 coat protein,[2],10.4 nM
same,apparent KD of MS2 coat protein,input ligand: none,12.1 nM
"CGGUCGUCCUCAGGAUAUACAUGAGGAUCACCCAUGUUUCUAGGAUCGGUCGUCCGGUCGGUGGUGUAGAAGGGAGGGUGGCUG [random 2, A 18%] (Eterna round: R96, puzzle: Exclusion NG 2)",apparent KD of MS2 coat protein,input ligand: FMN 200 uM,159 nM
same,apparent KD of MS2 coat protein,[2],37.1 nM
same,apparent KD of MS2 coat protein,input ligand: none,43.6 nM
"CGGUGUAACGUAGGAUAUCAACGCAACUGACGAUGAGAAGGACGACAUGAGGAUCACCCAUGUGAUUUCUCAAUAUUAUACAUC [Prohibition 86 - Jieux - Exclusion NG 1] (Eterna round: R96, puzzle: Exclusion NG 1)",apparent KD of MS2 coat protein,input ligand: FMN 200 uM,339 nM
same,apparent KD of MS2 coat protein,[2],41.9 nM
same,apparent KD of MS2 coat protein,input ligand: none,63.4 nM
"CGUAGCAAAGUGAGGAUAUCUAGAGCCUCGGCUCUAGAGAAGGCACAUGAGGAUCACCCAUGUGGUCAGCUACG [BmEx4/8-A2] (Eterna round: R97, puzzle: Brourd's mod of Exclusion 4)",apparent KD of MS2 coat protein,input ligand: FMN 200 uM,1050 nM
same,apparent KD of MS2 coat protein,input ligand: none,101 nM
"CGUCAGUGAGGAUAUGGUAACGUUUACAUGAGGAUCACCCAUGUUUCAUGGGACUAGAGACUAGAAGGCACUGACG [JR_Ex5_Sub030] (Eterna round: R97, puzzle: Exclusion 5)",apparent KD of MS2 coat protein,input ligand: FMN 200 uM,439 nM
same,apparent KD of MS2 coat protein,input ligand: none,416 nM
"CGUCCGAACUCAGGAUAUCAACUUAACAACAUGAGGAUCACCCAUGUGGCCUGUAAAACCCGAGAUGAGAAGGGAGGGCGGGCC [Usceondiat] (Eterna round: R96, puzzle: Exclusion NG 2)",apparent KD of MS2 coat protein,input ligand: FMN 200 uM,13.6 nM
same,apparent KD of MS2 coat protein,[2],15.4 nM
same,apparent KD of MS2 coat protein,input ligand: none,19.7 nM
"CGUCUGUAAGGAUAUGGUUACAUAGACAUGAGGAUCACCCAUGUUACGUGGGACUAGUGAUUAGAAGGUACGAACG [EX5 #67] (Eterna round: R97, puzzle: Exclusion 5)",apparent KD of MS2 coat protein,input ligand: FMN 200 uM,54.7 nM
same,apparent KD of MS2 coat protein,input ligand: none,51.2 nM
CGUGACUCAGGAUAUCUAUUGUAUCACAUGAGGAUCACCCAUGUCCAGCGAAAGCUGGAGGGAGAAGGGAGUCACG [Fiskers Ex 5 - 46] (puzzle: Exclusion 5),apparent KD of MS2 coat protein,[3],48.6 nM
same,apparent KD of MS2 coat protein,[1],204 nM
same,apparent KD of MS2 coat protein,[4],186 nM
CGUGACUCAGGAUAUGUAUAAUAUCACAUGAGGAUCACCCAUGUCCAGCGAAAGCUGGAGGCAGAAGGGAGUCACG [Fiskers Ex 5 - 38] (puzzle: Exclusion 5),apparent KD of MS2 coat protein,[3],43.1 nM
same,apparent KD of MS2 coat protein,[1],58.8 nM
same,apparent KD of MS2 coat protein,[4],31.9 nM
CGUGCGUAUGUGAGGAUAUGCUGGUCCUUGGAUCAGCAGAAGGCACAUGAGGAUCACCCAUGUGGUGUCGUACU [salish99_Bmod_Ex4_017] (puzzle: Brourd's mod of Exclusion 4),apparent KD of MS2 coat protein,[1],161 nM
